Data: patent US11820827B2, “Methods of treating myelodysplastic syndrome and acute myeloid leukemia with nonfucosylated anti-CD70 antibodies” (Seagen Inc., priority 2019, dated 2023)

Legend:
[1] = tested on: Raji NHL Burkitt Lymphoma model; assay: Survival in the Raji NHL Burkitt Lymphoma mouse model; type: in vivo, SCID mice; details: for median survival post implant: untreated 20 days
[2] = molecular target: T1, cynomolgus FcγRIIIa receptor (Macaca fascicularis, UniProt Q8SPW2); assay: CHO-FcγRIIIa binding assay by flow cytometry (cynomolgus receptor); details: compared with SGN-70
T1 construct: expressed in transfected cells; host or cells: CHO
Protocol: While BLI methodology is used to assess receptor affinity by monitoring binding kinetics, it is primarily set to monitor monovalent binding. To add to BLI data sets, flow cytometry was also performed (FIGS. 2A and 2B).
The CHO-FcγRIIIa binding assay was conducted as follows: • 1. Thaw cells: Cells were thawed on 11 Jun. 2019, and cultured in culture medium for 1 week to recover from freeze-thaw.
• 2. Wash: 60 million cells were washed 1× in PBS in 50-mL tubes. Cells were counted again and resuspended at 2.2×10^6/mL. Then 0.1 mL was pipetted per well • 3. Make 10× dilutions of antibody: The 10× dilutions were prepared (3 mg/mL, 1 mg/mL, 0.3 mg/mL, 0.1 mg/mL, 0.03 mg/mL, 0.01 mg/mL, 0.003 mg/mL, 0.001 mg/mL, and 0.0003 mg/mL in the dilution plate).
• 4. Aspirate: Wash was aspirated in wells and 100 μL of the corresponding antibody dilutions was pipetted with a multichannel pipet. The corresponding concentrations were 300, 100, 30, 10, 3, 1, […] μg/mL in triplicate. The concentrations were decreased vertically down the 96-well round bottom plate. • 5. […] Analyze samples: Samples were analyzed by flow cytometry in high throughput sampler (HTS) mode on the Attune. Median fluorescence intensity (MFI) was graphed (geomean), and equilibrium dissociation constant (KD) for each was calculated in PRIZM

T1 sequence (Q8SPW2 17-254): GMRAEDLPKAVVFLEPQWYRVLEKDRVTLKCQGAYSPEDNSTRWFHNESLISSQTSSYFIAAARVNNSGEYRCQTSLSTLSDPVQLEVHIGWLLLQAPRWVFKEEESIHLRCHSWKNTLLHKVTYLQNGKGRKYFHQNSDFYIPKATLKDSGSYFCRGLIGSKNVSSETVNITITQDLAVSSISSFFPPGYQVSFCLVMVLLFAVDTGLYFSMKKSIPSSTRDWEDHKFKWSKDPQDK

B1: SEA-CD70: humanized, nonfucosylated monoclonal IgG1 antibody targeting CD70 (nonfucosylated h1F6) (antibody, chains of the INN, looked up, V domains shown)
VH: QVQLVQSGAEVKKPGASVKVSCKASGYTFTNYGMNWVRQAPGQGLKWMGWINTYTGEPTYADAFKGRVTMTRDTSISTAYMELSRLRSDDTAVYYCARDYGDYGMDYWGQGTTVTVSS
VL: DIVMTQSPDSLAVSLGERATINCRASKSVSTSGYSFMHWYQQKPGQPPKLLIYLASNLESGVPDRFSGSGSGTDFTLTISSLQAEDVAVYYCQHSREVPWTFGQGTKVEIK
modifications: nonfucosylated
Question: Which results are given for B1?
Answer: median survival post implant ([1]; 0.3 mg/kg Q4dx4 intraperitoneally): 36.5 days; median survival post implant ([1]; 1 mg/kg Q4dx4 intraperitoneally): 68 days; total number of animals in group ([1]; 1 mg/kg, day 0): 8; total number of animals in group ([1]; 1 mg/kg, day 23): 8; total number of animals in group ([1]; 1 mg/kg, day 30): 7; total number of animals in group ([1]; 1 mg/kg, day 54): 6; total number of animals in group ([1]; 1 mg/kg, day 61): 5; total number of animals in group ([1]; 1 mg/kg, day 75): 4; total number of animals in group ([1]; 1 mg/kg, day 90): 3; median survival post implant ([1]; 3 mg/kg Q4dx4 intraperitoneally): 69.5 days; total number of animals in group ([1]; 3 mg/kg, day 0): 8; total number of animals in group ([1]; 3 mg/kg, day 28): 8; total number of animals in group ([1]; 3 mg/kg, day 33): 7; total number of animals in group ([1]; 3 mg/kg, day 64): 5; total number of animals in group ([1]; 3 mg/kg, day 75): 4; total number of animals in group ([1]; 3 mg/kg, day 90): 3; survival compared to untreated mice ([1]; 0.3, 1 and 3 mg/kg): increased survival; total number of animals in group ([1]; .3 mg/kg, day 0): 8; total number of animals in group ([1]; .3 mg/kg, day 5): 8; total number of animals in group ([1]; .3 mg/kg, day 33): 7; total number of animals in group ([1]; .3 mg/kg, day 35): 6; total number of animals in group ([1]; .3 mg/kg, day 36): 5; total number of animals in group ([1]; .3 mg/kg, day 37): 4; total number of animals in group ([1]; .3 mg/kg, day 69): 3; total number of animals in group ([1]; .3 mg/kg, day 90): 2; binding affinity to cynomolgus FcγRIIIa on CHO cells [2]: bound with higher affinity than SGN-70
